Experimental data taken from patent publication US20240209044.

How the values were obtained:
[1] = system: T1, ZIP, zeta inhibitory peptide, the pseudo-substrate peptide of the PKCzeta regulatory domain
T1 sequence: SIYRRGARRWRKL

[2] = system: ZAP, zeta activating peptide, the PKCzeta uORF-encoded peptide

Substance	kinase activity (phosphorylation of MBP, 32P-γ-ATP in vitro kinase assay, dose series of peptide) [1]	kinase activity (phosphorylation of MBP, 32P-γ-ATP in vitro kinase assay, dose series of peptide) [2]	phosphorylation of MBP by PKC isoforms (32P-γATP in vitro kinase assay) [2]
PKMzeta, truncated version of PKCzeta containing only the kinase domain	the known PS ZIP peptide inhibits their activity	the ZAP peptide activates the kinase activity of both PKCzeta and PKMzeta	
PKCgamma, HA-tagged, immunoprecipitated from HEK293T lysate			the peptide had no effect on the phosphorylation of MBP by the PKC isoforms PKCeta (PKCη), PKCtheta (PKCθ), PKCgamma (PKCγ), and PKCalpha (PKCα)
PKCdelta, HA-tagged, immunoprecipitated from HEK293T lysate			enhanced the phosphorylation of PKC isoforms of the novel PKC sub-family of PKCzeta, PKCdelta and PKCepsilon
